Test results from patent US9987329B2, “Methods for treating peripheral nerve damage” (Cornell University, priority 2014, dated 2018).

Columns and labels:
[1] = tested on: corneal nerves of C57BL/6 and Vegf-b−/− mice; assay: Corneal nerve regeneration after epithelial debridement, subconjunctival injection; assay type: in vivo, mouse; conditions: 0.5 ng subconjunctival single bolus, 7 days after debridement
Experimental: Wild type C57BL/6 and Vegf-b^-/- mice were subject to corneal epithelial debridement as described above or left intact. A 5 ul volume containing 0.5 ng VEGF-B^186 in PBS was injected subconjunctivally, at the lateral temporal bulbar conjunctiva, using a 10-μl micro-syringe (Hamilton Co). Equal volume of 0.1% bovine serum albumin (BSA) was used in control mice. The recovery of the corneal epithelial injury was imaged at 24, 40 and 48 hours by applying 1% fluorescein solution to the corneal surface and wounds photographed under diffuse cobalt blue light attached to a slit lamp bio-microscope (Nikon FS-3, Nikon) connected to a digital camera (Canon EOS 60D). The corneal epithelial defect areas were quantified by analyzing the images with Photoshop CS4 (Adobe). Corneas were harvested after one week for immunodetection of nerves. Possible growth of blood vessel into the cornea was monitored by slit lamp examination. […] The YFP fluorescent nerves were imaged with a fluorescence microscope at the site of pellet implantation and at a site 180 degrees opposite to the pellet. Images were analyzed using Neurolucida. […] Quantification of corneal nerves regeneration was obtained from corneal wholemount images traced and analyzed with Neurolucida 9 software. […] Central and peripheral cornea nerve densities were calculated and expressed as a percentage of control.

cornea = conditions: mouse, in vivo
Experimental: Wild type C57BL/6 and Vegf-b^−/− mice were subject to corneal epithelial debridement as described above or left intact. A 5 ul volume containing 0.5 ng VEGF-B^186 in PBS was injected subconjunctivally, at the lateral temporal bulbar conjunctiva, using a 10-μl micro-syringe (Hamilton Co). Equal volume of 0.1% bovine serum albumin (BSA) was used in control mice. The recovery of the corneal epithelial injury was imaged at 24, 40 and 48 hours by applying 1% fluorescein solution to the corneal surface and wounds photographed under diffuse cobalt blue light attached to a slit lamp bio-microscope (Nikon FS-3, Nikon) connected to a digital camera (Canon EOS 60D). The corneal epithelial defect areas were quantified by analyzing the images with Photoshop CS4 (Adobe). Corneas were harvested after one week for immunodetection of nerves. Possible growth of blood vessel into the cornea was monitored by slit lamp examination.

B1: recombinant mouse VEGF-B^186 (protein, listed as Homo sapiens)
chain: MSPLLRRLLLAALLQLAPAQAPVSQPDAPGHQRKVVSWIDVYTRATCQPREVVVPLTVELMGTVAKQLVPSCVTVQRCGGCCPDDGLECVPTGQHQVRMQILMIRYPSSQLGEMSLEEHSQCECRPKKKDSAVKPDRAATPHHRPQPRSVPGWDSAPGAPSPADITHPTPAPGPSAHAAPSTTSALTPGPAAAAADAAASSVAKGGA
notes: vascular endothelial growth factor B; recombinant mouse VEGF-B186 (R&D 767-VE-010)
- corneal nerve regeneration into the injured zone ([1]; Vegf-b−/− mice): confined to the peripheral cornea
- corneal nerve regeneration into the injured zone ([1]; wild-type mice): enhanced nerve regeneration in both the central and peripheral corneas
- neovascularization of the cornea (cornea): did not produce any unwanted neovascularization
